This note sets out measurements from patent US20240409614.

Substitutions are numbered along the chain they refer to.

The target of data set [1] is wildtype alpha-1-antitrypsin (A1AT).
The target in data set [2] is T1, A1AT-M351V/L353A/M358V.
T1 chain: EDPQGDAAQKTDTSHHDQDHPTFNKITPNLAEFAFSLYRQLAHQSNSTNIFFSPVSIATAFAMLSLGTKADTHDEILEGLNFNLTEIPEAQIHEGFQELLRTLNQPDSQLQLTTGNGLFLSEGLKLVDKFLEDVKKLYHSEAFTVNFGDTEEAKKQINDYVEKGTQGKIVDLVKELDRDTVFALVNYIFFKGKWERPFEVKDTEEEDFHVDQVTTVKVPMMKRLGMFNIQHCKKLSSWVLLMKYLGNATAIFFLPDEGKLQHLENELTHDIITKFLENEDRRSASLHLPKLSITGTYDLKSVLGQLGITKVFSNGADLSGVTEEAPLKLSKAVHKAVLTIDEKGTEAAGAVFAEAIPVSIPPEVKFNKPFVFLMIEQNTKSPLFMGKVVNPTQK

The target in data set [3] is T2, A1AT-M351V/L353S/M358V.
T2 chain: T1 chain with A353S

Data set [4] has as its target T3, A1AT-M351V/L353T/M358V.
T3 chain: T1 chain with A353T

In data set [5] the target is A1AT-M351V/M358V.
In data set [6] the target is A1AT-L353A/M358V.
For data set [7], the target named is A1AT-L353A.
The target of data set [8] is A1AT-M351V/L353A.

B1: MMP-9 (ProSpec, cat #enz-438) (protein)
chain: APRQRQSTLVLFPGDLRTNLTDRQLAEEYLYRYGYTRVAEMRGESKSLGPALLLLQKQLSLPETGELDSATLKAMRTPRCGVPDLGRFQTFEGDLKWHHHNITYWIQNYSEDLPRAVIDDAFARAFALWSAVTPLTFTRVYSRDADIVIQFGVAEHGDGYPFDGKDGLLAHAFPPGPGIQGDAHFDDDELWSLGKGVVVPTRFGNADGAACHFPFIFEGRSYSACTTDGRSDGLPWCSTTANYDTDDRFGFCPSERLYTQDGNADGKPCQFPFIFQGQSYSACTTDGRSDGYRWCATTANYDRDKLFGFCPTRADSTVMGGNSAGELCVFPFTFLGKEYSTCTSEGRGDGRLWCATTSNFDSDKKWGFCPDQGYSLFLVAAHEFGHALGLDHSSVPEALMYPMYRFTEGPPLHKDDVNGIRHLYGPRPEPEPRPPTTTTPQPTAPPTVCPTGPPTVHPSERPTAGPTGPPSAGPTGPPTAGPSTATTVPLSPVDDACNVNIFDAIAEIGNQLYLFKDGKYWRFSEGRGSRPQGPFLIADKWPALPRKLDSVFEERLSKKLFFFSGRQVWVYTGASVLGPRRLDKLGLGADVAQVTGALRSGRGKMLLFSGRRLWRFDVKAQMVDPRSASEVDRMFPGVPLDTHDVFQYREKAYFCQDRFYWRVSSRSELNQVDQVGYVTYDILQCPED
Take B1: the cleaved (%) after MMP-9 treatment (SDS-PAGE) in data set [1] amounted to 89%; in data set [2], 6%; in data set [3], 0%; in data set [4], 0%; in data set [5], 25%. Further, the non-cleaved (%) after MMP-9 treatment (SDS-PAGE) turned out to be 11% in data set [1]; 94% in data set [2]; 100% in data set [3]; 100% in data set [4]; 75% in data set [5].

B2: MMP-7 (ProSpec, cat #enz-271) (protein)
chain: YSLFPNSPKWTSKVVTYRIVSYTRDLPHITVDRLVSKALNMWGKEIPLHFRKVVWGTADIMIGFARGAHGDSYPFDGPGNTLAHAFAPGTGLGGDAHFDEDERWTDGSSLGINFLYAATHELGHSLGMGHSSDPNAVMYPTYGNGDPQNFKLSQDDIKGIQKLYGKRSNSRKK
Take B2: the “proteolytic degradation by MMP-7 (SDS-PAGE, FIG. 4)” value in data set [6] was “A0025 showed as little degradation by MMP-7 as A0028 and A0031”; in data set [7], “A0025 showed as little degradation by MMP-7 as A0028 and A0031”; in data set [8], “A0025 showed as little degradation by MMP-7 as A0028 and A0031”. Further, the cleaved (%) after MMP-7 treatment (SDS-PAGE) in data set [1] was determined as 96%; in data set [2], 0%; in data set [3] it was 0%; in data set [4] it was 5%; in data set [5], 63%. Besides, the non-cleaved (%) after MMP-7 treatment (SDS-PAGE) was 4% in data set [1]; 100% in data set [2]; 100% in data set [3]; 95% in data set [4]; 37% in data set [5].
